Measurements: PMC4741471 (Oncotarget, 2015)

Target: the molecule itself
Assay: non-reducing SDS-PAGE without heating

B1: cholera toxin B subunit (recombinant, His6-tagged CTB) (natural protein)
chain: TPQNITDLCAEYHNTQIYTLNDKIFSYTESLAGKREMAIITFKNGAIFQVEVPGSQHIDSQKKAIERMKDTLRIAYLTEAKVEKLCVWNNKTPHAIAAISMAN
- stoichiometry N: 5
